From publication doi:10.64898/2025.12.15.694324

Molecular target: PARP15^CAT WT, isolated catalytic domain of human PARP15, batch with His-tag (human)
Test: native MS

**Q.** “PARP15^CAT WT, isolated catalytic domain of human PARP15, batch with His-tag (domain or fragment)” was tested. Which stoichiometry N did it give?
**A.** 2
